The source of these data is article PMC10699557, “A recombinant approach for stapled peptide discovery yields inhibitors of the RAD51 recombinase†” (Chemical Science, 2023).

Bridge positions count the residues as written; N and C are the ends. Ends that are not written are not given here. DVT = divinyltriazine staple linking the two cysteines

The assay has as its target HumRadA22. Briefly: fluorescence polarisation; competition: displacement of a fluorescently-labelled BRC4 repeat from HumRadA22; KD calculated from IC50; single titrations with three technical replicates at each point; mock (linear) samples with 500 uM TCEP. Conditions: both partners purified.

B1: GB1-SP7-His8, stapled with DVT (peptide)
chain: VNSSAFSGFCTASGKKLNVSCEALQKAVKLFSDIENIS
modifications: linker 10-21 via DVT (inferred); also: His8 tag in name not shown in chain
As to B1, the dissociation constant Kd is 149 nM.
